# Starred links: 1 amine or outer side, 2 acyl side, 3 side chain; linkers in the order of their positions; H or OH if unused. Non-standard residues stand in square brackets, D forms with d. Residues, ends and D or L forms follow the SMILES beside them. *: point of attachment. X1 = C[N+](C)(C)CCOP(=O)([O-])OCCCCCCCCCCCCCCCCCCc1ccc(C(=O)*)cc1; Dolaproine = CO[C@@H]([C@@H]1CCCN1)[C@@H](C)C(=O)O; Dil = CC[C@H](C)[C@H](NC)[C@@H](CC(=O)O)OC; PABC = O=C(OCc1ccc(N[*:1])cc1)[*:2]; X2 = C[C@@H](N*)[C@@H](O)c1ccccc1; Cit = NC(=O)NCCC[C@H](N)C(=O)O; NMeV = CN[C@H](C(=O)O)C(C)C
# Columns and labels:
# [1] = Cyprotex Plasma Stability assay, human plasma; type: in vitro ADME
# Protocol: To determine whether cytotoxic PDCs are tolerated in vivo, C57BL/6 mice were dosed in the following manner: PDC-SM2 was dosed on days 0, 3 and 7 at dose levels of 0.5 mg/kg, 1.0 mg/kg, or 2.0 mg/kg; Payload alone was dosed on day 0 only at 0.25 mg/kg, 0.4 mg/kg, or 0.5 mg/kg; vehicle was dosed on day 0, 3 and 7. […] Payload dose of 0.5 mg/kg was not tolerated, two mice died by day 4 following a single infusion and all mice were sacrificed on day 5 (FIG. 5). […] Plasma stability was measured using Cyprotex’s Plasma Stability assay. The samples were at a concentration of 1 µM and were incubated at 0, 15, 30, 60 and 120 minutes. A positive control compound which undergoes degradation in plasma was used. The percent of the compound remaining at each incubation time point was measured. […] Overall, PDCs offer a novel and unique approach to targeting small molecules to tumor cells.
# [2] = Cyprotex Plasma Stability assay, mouse plasma; type: in vitro ADME
# Protocol: To determine whether cytotoxic PDCs are tolerated in vivo, C57BL/6 mice were dosed in the following manner: PDC-SM2 was dosed on days 0, 3 and 7 at dose levels of 0.5 mg/kg, 1.0 mg/kg, or 2.0 mg/kg; Payload alone was dosed on day 0 only at 0.25 mg/kg, 0.4 mg/kg, or 0.5 mg/kg; vehicle was dosed on day 0, 3 and 7. […] Plasma stability was measured using Cyprotex’s Plasma Stability assay. The samples were at a concentration of 1 µM and were incubated at 0, 15, 30, 60 and 120 minutes. A positive control compound which undergoes degradation in plasma was used. The percent of the compound remaining at each incubation time point was measured.
# [3] = test system: MCF-7 breast cancer cells; assay: In vitro uptake and release of CLR2000045, LC/MS/MS; type: cell-based
# Protocol: (§1) In vitro uptake of CLR2000045 was assessed using MCF-7 breast cancer cells and normal human dermal fibroblasts (NHDF) cells and was measured via LC/MS/MS. The breast cancer cells were maintained in minimum essential medium supplemented with 10% FBS. All cells were maintained at 37° C. and 5% CO2. Cells were incubated with 1 µM of drug and reported values were the average of triplicate assessments. In vitro cytotoxicity was determined by Cell Titer-Glo® assay using MCF-7 breast cancer cells and Hs578T triple negative breast cancer cells.
# [4] = test system: normal human dermal fibroblasts (NHDF) cells; assay: In vitro uptake of CLR2000045, LC/MS/MS; type: cell-based; settings: 1 µM
# Protocol: as §1
# [5] = test system: Hs578T triple negative breast cancer cells; assay: In vitro cytotoxicity, Cell Titer-Glo assay; type: cell-based; settings: FIG. 7
# Protocol: as §1
# Between 24 and 48 hours a steady state between uptake and release of the warhead was achieved (FIG. 6). […] Half maximal inhibitory concentration (IC50) was measured in the cell lines (TABLE 2). Plasma stability of CLR2000045 was also measured (TABLE 3).
# [6] = test system: HCC70 triple negative breast cancer (TNBC) xenografts; assay: In vivo efficacy in TNBC xenograft model; design: species or system R2G2 mice
# Protocol: In vivo efficacy was further assessed in R2G2 mice bearing HCC70 triple negative breast cancer (TNBC) xenografts. Three doses (1 mg/kg) given once, twice or 3 times per week for 2 weeks of CLR2000045 were assessed. CLR2000045 was administered systemically by injection of the tail vein. Each group contained 10 mice. Tumor volume was monitored for efficacy and body weight for tolerability. Survival was also monitored.
# The study was initiated when group mean tumor volume reached ~200 mm^3 (Day 4). CLR2000045 was dosed IV at the following doses: 1 mg/kg on either day 5 and 12 or day 5, 8, 12 and 15 or day 5, 7, 9, 12, 14, and 16. […] Changes in body weight post treatment were measured in the (HCC70) mouse xenograft model (FIG. 11A and FIG. 11B).
# [7] = test system: MCF-7 breast cancer cells; settings: FIG. 7
# Protocol: The breast cancer cells were maintained in minimum essential medium supplemented with 10% FBS. All cells were maintained at 37° C. and 5% CO2. […] In vitro cytotoxicity was determined by Cell Titer-Glo® assay using MCF-7 breast cancer cells and Hs578T triple negative breast cancer cells.
# HCT 116 xenografts = assay: In vivo efficacy in colorectal cancer xenograft model; design: species or system athymic nude mice; settings: 10 mg/kg on day 1 and 4
# Protocol: CLR180099 was administered intravenously (IV) to healthy C57BL/6 mice to determine the maximum tolerated dose (MTD) as compared to the FLV molecule alone. The vehicle used to administer CLR180099 was PBS in this case, however any pharmaceutically suitable vehicle may be used. Each group contained 5 mice. In vivo efficacy was assessed in athymic nude mice bearing HCT 116 xenografts. The mice were flank models which were developed by injecting the hind flank of the mice with about 1x10^6 of the cells resuspended in […] of 1.2% methylcellulose. The study was initiated when group mean tumor volume reached about 120 mm^3. Tumor volume was measured using calipers - measurements of the length, width, and depth of the tumor were used to calculate the tumor volume. Two doses (2 mg/kg given 2 times or 2 mg/kg given 3 times) of CLR180099 were assessed. Each group contained 10 mice. Tumor volume was monitored for efficacy and body weight for tolerability. Total conjugated CLR180099 and free FLV were determined via mass spectrometry.
# The study was initiated when group mean tumor volume reached -120 mm^3 (Day 1). CLR180099 was dosed IV at 2 mg/kg on either day 1 and 4 or day 1, 3 and 5. Docetaxel was dosed at 10 mg/kg on day 1 and 4. […] Five mice per group were dosed at each dose level. Both PDCs were tolerated up to dose of 10 mg/kg with all mice alive and showing no end organ toxicities (TABLE 5). […]
# [8] = Table 1, 1 µM, 0-120 minutes, read-out: Human T½
smiles,measurement,setting,value
C=C(c1ccc(OC)c(NC(=O)OCc2ccc(OP(=O)(O)OP(=O)(O)OCCNC(=O)c3ccc(CCCCCCCCCCCCCCCCCCOP(=O)([O-])OCC[N+](C)(C)C)cc3)cc2)c1)c1cc(C)nc2ccccc12 [CLR2000045],half-life at 1 µM,"[1]; Table 3, read-out: Human t½",> 400 min
same,half-life at 1 µM,"[2]; Table 3, read-out: Mouse t½",> 400 min
same,uptake in tumor cells,[3]; 1 µM,significant uptake
same,release of the warhead,[3]; at each timepoint,approximately 50%
same,"uptake and release of payload, share of exposed drug",[3]; tumor cell lines,20-40%
same,uptake in normal tissue,[4],minimal uptake
same,IC50,[5],51 nM
same,eradication of the tumor,[6]; 1 mg/kg IV 3 times per week for 2 weeks (highest dose),~100%
same,tumor volume compared to vehicle control,"[6]; 1 mg/kg IV, 2 highest dose groups (2x and 3x per week for 2 weeks), p≤0.05 and p≤0.01",statistically significant reduction in tumor volume
same,survival (Kaplan-Meier),"[6]; 1 mg/kg three times per week for 2 weeks, vs vehicle (p≤0.001) and 1 time per week (p≤0.05)",significant increase in survival
same,survival (Kaplan-Meier),"[6]; 1 mg/kg twice a week for two weeks, vs vehicle (p≤0.05)",significant increase
same,tolerability as measured by body weight loss,[6]; two highest doses,well tolerated
same,IC50,[7],76 nM
CC[C@H](C)[C@@H]([C@@H](CC(=O)N1CCC[C@H]1[C@H](OC)[C@@H](C)C(=O)N[C@H](C)[C@@H](O)c1ccccc1)OC)N(C)C(=O)[C@@H](NC(=O)[C@H](C(C)C)N(C)C(=O)OCc1ccc(NC(=O)[C@H](CCCNC(N)=O)NC(=O)[C@@H](NC(=O)c2ccc(CCCCCCCCCCCCCCCCCCOP(=O)([O-])OCC[N+](C)(C)C)cc2)C(C)C)cc1)C(C)C [PDC-SM3] (X1-V[Cit][PABC][NMeV]V[Dil][Dolaproine]-X2),half-life at 1 µM,[1]; [8],> 400 min
same,half-life at 1 µM,"[2]; Table 1, 1 µM, 0-120 minutes, read-out: Mouse T½",> 400 min
COC(=O)[C@@H]1[C@H](O)[C@]2(O)c3c(OC)cc(OCCCCNC(=O)OCC(C)(C)SSCCCCCCCCCCCCCCCCCCOP(=O)([O-])OCC[N+](C)(C)C)cc3O[C@]2(c2ccc(OC)cc2)[C@H]1c1ccccc1 [CLR1800095],half-life at 1 µM,"[1]; Table 4, read-out: Human t½",> 400 min
same,stability in mouse plasma (in words),[2],some instability
same,half-life at 1 µM,"[2]; Table 4, read-out: Mouse t½",199 min
C=C(c1ccc(OC)c(NP(=O)(O)OP(=O)(O)OCCNC(=O)c2ccc(CCCCCCCCCCCCCCCCCCOP(=O)([O-])OCC[N+](C)(C)C)cc2)c1)c1cc(C)nc2ccccc12 [CLR2013],half-life at 1 µM,"[1]; Table 3, read-out: Human t½",> 400 min
same,half-life at 1 µM,"[2]; Table 3, read-out: Mouse t½",77 min
"CC(C)[N+](C)(CCOC(=O)C1c2ccccc2Oc2ccccc21)C(C)C [Propantheline, reference compound]",half-life at 1 µM,[1]; [8],54 min
same,half-life at 1 µM,"[1]; Table 3, read-out: Human t½",77 min
same,half-life at 1 µM,"[1]; Table 4, read-out: Human t½",54 min
same,half-life at 1 µM,"[2]; Table 3, read-out: Mouse t½",57 min
CC(=O)O[C@@]12CO[C@@H]1C[C@H](O)[C@@]1(C)C(=O)[C@H](O)C3=C(C)[C@@H](OC(=O)[C@H](O)[C@@H](NC(=O)OC(C)(C)C)c4ccccc4)C[C@@](O)([C@@H](OC(=O)c4ccccc4)[C@H]21)C3(C)C [docetaxel],deaths in treatment arm,HCT 116 xenografts,multiple deaths starting at day 18 and ending at day 26

# Reference: US20230066517A1, “Phospholipid Ether Conjugates as Cancer-Targeting Drug Vehicles” (Cellectar Biosciences, Inc., priority 2019, published 2023)
